Laboratory results reported in paper PMC5974136.

Biological target: Tyr24 (position 24, …)
Assay: NMR
Settings: 10 C; no added salt (NaCl, KCl absent); 10 mM phosphate only; 10 mM phosphate buffer (initial pH 7), 0.1 mM DSS; soluble, predominantly disordered repetitive domain; about 1.5-2.2 mM protein

B1: MaSp1 repetitive domain 15-mer (15 contiguous copies of the consensus repeat of major ampullate spidroin 1) (Nephila clavipes (Trichonephila clavipes); … (protein)
chain: GRGGLGGQGAGAAAAAGGAGQGGYGGLGSQGTSGRGGLGGQGAGAAAAAGGAGQGGYGGLGSQGTSGRGGLGGQGAGAAAAAGGAGQGGYGGLGSQGTSGRGGLGGQGAGAAAAAGGAGQGGYGGLGSQGTSGRGGLGGQGAGAAAAAGGAGQGGYGGLGSQGTSGRGGLGGQGAGAAAAAGGAGQGGYGGLGSQGTSGRGGLGGQGAGAAAAAGGAGQGGYGGLGSQGTSGRGGLGGQGAGAAAAAGGAGQGGYGGLGSQGTSGRGGLGGQGAGAAAAAGGAGQGGYGGLGSQGTSGRGGLGGQGAGAAAAAGGAGQGGYGGLGSQGTSGRGGLGGQGAGAAAAAGGAGQGGYGGLGSQGTSGRGGLGGQGAGAAAAAGGAGQGGYGGLGSQGTSGRGGLGGQGAGAAAAAGGAGQGGYGGLGSQGTSGRGGLGGQGAGAAAAAGGAGQGGYGGLGSQGTSGRGGLGGQGAGAAAAAGGAGQGGYGGLGSQGTS
Q: Which pKa does the source give for B1 here?
A: 10.25 ± 0.02
